Laboratory results reported in patent US20250340631A1 (HARBOUR BIOMED SHANGHAI, published 2025).

Columns and labels:
human CLDN18.2 [1] = target: T1, human CLDN18.2 (human); test: FACS on SNU601 cells
T1 construct: the HEK293 line was made with a GenScript plasmid; also called hCLDN18.2
Method: (§1) The binding affinity of an antibody was detected by FACS using human CLDN18.1-expressing HEK293 cells, human CLDN18.2-expressing HEK293 cells, NUGC4_D8 cells and SNU601 cells endogenously expressing human CLDN18.2 (Cobioer, CBP60507). […] The cell density was adjusted to 10⁶ cells/mL, and 50 μL of the cell suspension was added to each well of a 96-well plate. Antibodies were diluted to different concentrations with FACS buffer, and 50 μL of the antibody dilution was added to each well of the 96-well plate. After 2 h of incubation at 4° C., the plate was washed twice with FACS buffer. […] After 1 h of incubation at 4° C., the plate was washed twice with FACS buffer. The cells were resuspended in fixative solution, and then the fluorescence of the cells was monitored using an FACS instrument (ACEA NovoCyte).

human CLDN18.2 [2] = target: T1, human CLDN18.2; test: FACS on NUGC4_D8 cells
Method: as §1

human CLDN18.2 [3] = target: T1, human CLDN18.2; test: competition FACS on HEK293/hCLDN18.2 cells; competitor 200 nM biotinylated PR004549
Method: (§2) This example is to study the binding of anti-human CLDN18.2 HCAb monoclonal antibodies to the epitope region of human CLDN18.2 antigen. Competitive binding experiments were performed at the cellular level using HEK293/hCLDN18.2 cells overexpressing human CLDN18.2. […] Then suspension of HEK293/hCLDN18.2 cells overexpressing human CLDN18.2 were adjusted to 3×10⁶ cells/mL, seeded 50 L/well. The cells were co-incubated at 4° C. for 2 h. The cells in each well were washed twice with 200 μL of pre-cooled FACS buffer (2% FBS in PBS) and centrifuged at 500 g at 4° C. for 5 min, and then the supernatant was discarded. […] The cells in each well were washed twice with 200 μL of pre-cooled FACS buffer (2% FBS in PBS) and centrifuged at 500 g at 4° C. for 5 min, and then the supernatant was discarded. Finally, the cells in each well were resuspended in 200 μL of pre-cooled FACS buffer, and the fluorescence signal values were read using a BD FACS CANTOII.

human CLDN18.2 [4] = target: T1, human CLDN18.2; test: competition FACS on HEK293/hCLDN18.2 cells; competitor 10 nM biotinylated PR000400
Method: as §2

human CLDN18.2 [5] = target: T1, human CLDN18.2; test: FACS on HEK293/hCLDN18.2 cells
Method: as §1

human CLDN18.2 [6] = target: T1, human CLDN18.2; test: FACS on NUGC4_D8 cells; remark: listed apart in the source
Method: as §1

[7] = target: T2, Biotinylated human CD3E&D (human, UniProt P07766 23-126; P04234 22-105, biotin label); test: BLI (Octet), biotinylated CD3 on SA sensor, 1:1 global fit;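 further: antibodies applied as analyte in 2-fold serial dilutions, with a 180 s association phase followed by a 300 s dissociation phase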
T2 construct: also called CDD-H82W6
Method: The binding kinetics between proteins and antibodies was analyzed by the Biolayer Interferometry (BLI) technique using an Octet Red 96e (Fortebio) system. Human CD3E (Acro, CDE-H5223), cynomolgus CD3E (Acro, CDE-C5226) and murine CD3E (Acro, CDE-M5256) were mixed with biotin (Thermo Scientific, A39257) in a molar ratio of 1:3. The mixture was incubated at 4° C. overnight, and then excess biotin was removed to obtain biotinylated CD3E. The rotation speed was set at 1000 rpm for the system. […] After being equilibrated in the buffer for 120 s, the SA sensor with captured CD3 was allowed to bind to 2-fold serially diluted antibodies. […] Finally, the SA sensor was immersed in a 10 mM glycine-hydrochloric acid solution at pH 1.5 for regeneration to elute the antibodies bound to the sensor. […] For the interactions of fast binding and fast dissociation, the “steady state” method was selected to fit the data to obtain KD(M) values.

human CLDN18.2 [8] = target: T1, human CLDN18.2; test: competition FACS on HEK293/hCLDN18.2 cells; competitor 10 nM biotinylated PR000400; remark: listed apart in the source
human CLDN18.2 [9] = target: T1, human CLDN18.2; test: competition FACS on HEK293/hCLDN18.2 cells; competitor 200 nM biotinylated PR004549; remark: listed apart in the source
Method: This example is to study the binding of anti-human CLDN18.2 bispecific antibodies to the epitope region of a human CLDN18.2 antigen. Competitive binding experiments were performed at the cellular level using human CLDN18.2-overexpressing HEK293/hCLDN18.2 cells. […] The mixture was well mixed and incubated at 4° C. for 30 min. 25 μL of the corresponding serially diluted non-biotinylated anti-human CLDN18.2 antibody was added. The mixture was well mixed and incubated at 4° C. for 1 h. The cells in each well were washed twice with 200 μL of pre-cooled FACS buffer (2% BSA in DPBS) and centrifuged at 500 g at 4° C. for 5 min, and then the supernatant was discarded. A fluorescent secondary antibody (Jackson ImmunoResearch, 016-540-084, 1:500) was added. The mixture was incubated at 4° C. in the absence of light for 1 h. The cells in each well were washed twice with 200 μL of pre-cooled FACS buffer (2% BSA in DPBS) and centrifuged at 500 g at 4° C. for 5 min, and then the supernatant was discarded. Finally, the cells in each well were resuspended in 200 μL of pre-cooled FACS buffer, and the fluorescence signal values were read using a ACEA_NovoCyte.

T2 sequence (P07766 23-126, chain 1 of 2): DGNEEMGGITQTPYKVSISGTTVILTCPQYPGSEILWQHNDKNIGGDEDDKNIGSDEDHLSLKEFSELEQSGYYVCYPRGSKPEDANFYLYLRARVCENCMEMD
T2 sequence (P04234 22-105, chain 2 of 2): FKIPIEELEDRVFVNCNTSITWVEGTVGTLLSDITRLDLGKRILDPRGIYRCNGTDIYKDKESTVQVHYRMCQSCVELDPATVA

EC50 (human CLDN18.2 [1])	Emax (MFI) (human CLDN18.2 [1])	EC50 (human CLDN18.2 [2])	Emax (MFI) (human CLDN18.2 [2])	IC50 (human CLDN18.2 [3])	Maximum inhibition rate (%) (human CLDN18.2 [3])	IC50 (human CLDN18.2 [4])	Maximum inhibition rate (%) (human CLDN18.2 [4])	EC50 (human CLDN18.2 [5])	Emax (MFI) (human CLDN18.2 [5])	EC50 (human CLDN18.2 [6])	Emax (MFI) (human CLDN18.2 [6])	Binder	other results
11.9 nM	11300 MFI	25 nM	183000 MFI	23.2 nM	93.7%	25.5 nM	98.6%					PR004533 (antibody, V domains shown, anti-CLDN18.2 HCAb: VH fused to human IgG1 Fc, no light chain; also called R1029P021E10) VH: EVQLVESGGGLVQPGGSLRLSCAASGFTFSSYWMHWVRQVPGKGLVWVSRINSDGSRTIYADSVKGRFTISRDNAKNTLYLQMNSLRAEDTAVYYCARGEDHDILTGYPIRGQGTTVTVSS	
								12.8 nM	1.31e+06 MFI	74.6 nM	174000 MFI	PR007248 (antibody, human IgG1, V domains shown, HCDR2 PTM-removal mutant of PR004533; HCAb, human IgG1 Fc; also called 4533_M10E7) VH: EVQLVESGGGLVQPGGSLRLSCAASGFTFSSYWMHWVRQVPGKGLVWVSRINHDSSRTIYADSVKGRFTISRDNAKNTLYLQMNSLRAEDTAVYYCARGEDHDILTGYPIRGQGTTVTVSS	
								14.4 nM	1.37e+06 MFI	55.9 nM	166000 MFI	PR007246 (antibody, human IgG1, V domains shown, HCDR2 PTM-removal mutant of PR004533; HCAb, human IgG1 Fc; also called 4533_M3F10) VH: EVQLVESGGGLVQPGGSLRLSCAASGFTFSSYWMHWVRQVPGKGLVWVSRISSTGSRTIYADSVKGRFTISRDNAKNTLYLQMNSLRAEDTAVYYCARGEDHDILTGYPIRGQGTTVTVSS	
								11.7 nM	1.3e+06 MFI	49.2 nM	153000 MFI	PR007244 (antibody, human IgG1, V domains shown, HCDR2 PTM-removal mutant of PR004533; HCAb, human IgG1 Fc; also called 4533_M4H6) VH: EVQLVESGGGLVQPGGSLRLSCAASGFTFSSYWMHWVRQVPGKGLVWVSRIDSRGSRTIYADSVKGRFTISRDNAKNTLYLQMNSLRAEDTAVYYCARGEDHDILTGYPIRGQGTTVTVSS	
12.8 nM	18300 MFI	21.8 nM	265000 MFI	31 nM	94.2%	35.4 nM	98.5%					PR004949 (antibody, V domains shown, anti-CLDN18.2 HCAb: VH fused to human IgG1 Fc, no light chain; also called R1029P021C02) VH: EVQLVESGGGLVQPGGSLRLSCAASGFTFSAYWMHWVRQVPGRGLVWVSRINSDGSRTIYADSVKGRFTISRDNAKNTLYLQMNSLRAEDTAVYLCARGEDHDMLTGYPVRGQGTMVTVSS	
								11.3 nM	1.48e+06 MFI	69.5 nM	176000 MFI	PR007242 (antibody, human IgG1, V domains shown, HCDR2 PTM-removal mutant of PR004533; HCAb, human IgG1 Fc; also called 4533_M10E1) VH: EVQLVESGGGLVQPGGSLRLSCAASGFTFSSYWMHWVRQVPGKGLVWVSRINFDSSRTIYADSVKGRFTISRDNAKNTLYLQMNSLRAEDTAVYYCARGEDHDILTGYPIRGQGTTVTVSS	
14.6 nM	13600 MFI	16.1 nM	206000 MFI	19.9 nM	94.3%	23.5 nM	98.5%					PR004950 (antibody, V domains shown, anti-CLDN18.2 HCAb: VH fused to human IgG1 Fc, no light chain; also called R1029P021F07) VH: EVQLVESGGGLVQPGGSLRLSCAASGFTFSAYWMHWVRQVPGKGLVWVSRINSDGSRTIYADSVKGRFTISRDNAKNTLYLQMNSLRAEDTAVYYCARGEDHDILTGYPIRGQGTMVTVSS	
								13.3 nM	1.47e+06 MFI	78.2 nM	176000 MFI	PR007243 (antibody, human IgG1, V domains shown, HCDR2 PTM-removal mutant of PR004533; HCAb, human IgG1 Fc; also called 4533_M3D9) VH: EVQLVESGGGLVQPGGSLRLSCAASGFTFSSYWMHWVRQVPGKGLVWVSRISSAGSRTIYADSVKGRFTISRDNAKNTLYLQMNSLRAEDTAVYYCARGEDHDILTGYPIRGQGTTVTVSS	
								13 nM	1.31e+06 MFI	63.2 nM	137000 MFI	PR007245 (antibody, human IgG1, V domains shown, HCDR2 PTM-removal mutant of PR004533; HCAb, human IgG1 Fc; also called 4533_M6E6) VH: EVQLVESGGGLVQPGGSLRLSCAASGFTFSSYWMHWVRQVPGKGLVWVSRISSDASRTIYADSVKGRFTISRDNAKNTLYLQMNSLRAEDTAVYYCARGEDHDILTGYPIRGQGTTVTVSS	
				50 nM	89.2%	64.1 nM	95.8%					PR004540 (antibody, V domains shown, anti-CLDN18.2 HCAb: VH fused to human IgG1 Fc, no light chain; also called R1029P037B07) VH: EVQLVESGGGLVQPGGSLRLSCAASGFTFSIYWMHWVRQVPGKGLVLVSRISSDGNYTSYADSVKGRFTISRDNAKNTLYLQMNSLRAEDTAVYLCARGEDHDMLTGYPVRGQGTTVTVSS	
												PR002199 (bispecific antibody) chain 1: not shown chain 2: EVQLVESGGGLVQPGRSLRLSCAASGFTFDDYAMHWVRQAPGKGLEWVSGISWNSGSIGYADSVKGRFTISRDNAKNSLYLQMNSLRAEDTALYYCAKDSRGYGDYRLGGAYWGQGTLVTVSSASTKGPSVFPLAPSSKSTSGGTAALGCLVKDYFPEPVTVSWNSGALTSGVHTFPAVLQSSGLYSLSSVVTVPSSSLGTQTYICNVNHKPSNTKVDKKVEPKSCDKTHTCPPCPAPEAAGGPSVFLFPPKPKDTLMISRTPEVTCVVVDVSHEDPEVKFNWYVDGVEVHNAKTKPREEQYNSTYRVVSVLTVLHQDWLNGKEYKCKVSNKALGAPIEKTISKAKGQPREPQVYTLPPCREEMTKNQVSLWCLVKGFYPSDIAVEWESNGQPENNYKTTPPVLDSDGSFFLYSKLTVDKSRWQQGNVFSCSVMHEALHNHYTQKSLSLSPGK chain 3: EVQLLESGGGLVQPGGSLRLSCAASGFTVSSYGMSWVRQAPGKGPEWVSGIRGSDGSTYYADSVKGRFTISRDNSKNTLYLQMNSLRAEDTAVYYCAKQGENDGPFDHRGQGTLVTVSSGGGGSEVQLLESGGGLVQPGGSLRLSCAASGFTVSSYGMSWVRQAPGKGPEWVSGIRGSDGSTYYADSVKGRFTISRDNSKNTLYLQMNSLRAEDTAVYYCAKQGENDGPFDHRGQGTLVTVSSASEPKSSDKTHTCPPCPAPEAAGGPSVFLFPPKPKDTLMISRTPEVTCVVVDVSHEDPEVKFNWYVDGVEVHNAKTKPREEQYNSTYRVVSVLTVLHQDWLNGKEYKCKVSNKALGAPIEKTISKAKGQPREPQVCTLPPSREEMTKNQVSLSCAVKGFYPSDIAVEWESNGQPENNYKTTPPVLDSDGSFFLVSKLTVDKSRWQQGNVFSCSVMHEALHNHYTQKSLSLSPGK	Kd [7]: 241 nM; koff [7]: 0.0518 s⁻¹; kon [7]: 215000 M⁻¹ s⁻¹
28.5 nM	14800 MFI			20.3 nM	93.8%	22.3 nM	98.3%					PR004227 (antibody, V domains shown, anti-CLDN18.2 HCAb: VH fused to human IgG1 Fc, no light chain; also called R1029P(CG20)001B02) VH: EVQLVESGGGLVQPGGSLRLSCAASGFTFSSYWMHWVRQAPGKGLEWVSYINNDGSSTRYADSVKGRFTISRDNAKNTLYLQMNSLRAEDTAVYYCTEAPPYGNYERDYWGQGTLVTVSS	
		17 nM	101000 MFI	11.5 nM	90.7%	20.1 nM	96.4%	5.6 nM	1.32e+06 MFI	56.4 nM	58400 MFI	PR000400 (antibody, human IgG1, kappa, V domains shown, also called IMAB362 analogue) VH: QVQLQQPGAELVRPGASVKLSCKASGYTFTSYWINWVKQRPGQGLEWIGNIYPSDSYTNYNQKFKDKATLTVDKSSSTAYMQLSSPTSEDSAVYYCTRSWRGNSFDYWGQGTTLTVSS VL: DIVMTQSPSSLTVTAGEKVTMSCKSSQSLLNSGNQKNYLTWYQQKPGQPPKLLIYWASTRESGVPDRFTGSGSGTDFTLTISSVQAEDLAVYYCQNDYSYPFTFGSGTKLEIKR	IC50 (human CLDN18.2 [8]): 36.2 nM; Maximum inhibition rate (%) (human CLDN18.2 [8]): 92.7%; IC50 (human CLDN18.2 [9]): 25.2 nM; Maximum inhibition rate (%) (human CLDN18.2 [9]): 52.3%
		12 nM	219000 MFI	13.8 nM	93.2%	16.7 nM	98%					PR004953 (antibody, V domains shown, anti-CLDN18.2 HCAb: VH fused to human IgG1 Fc, no light chain; also called R1029P024B07) VH: EVQLVESGGGVVQPGRSLRLSCAASGFTFSSYGMHWVRQAPGKGLEWVAVIGYDGRNKYYADSVKGRFTISRDNSKNTLFLQMDNLRAEDTALYYCARHFPSLPGTTDTFDIRGPGTMVTVSS	
52.7 nM	15800 MFI			74.1 nM	90.1%	103 nM	98%					PR004536 (antibody, V domains shown, anti-CLDN18.2 HCAb: VH fused to human IgG1 Fc, no light chain; also called R1029P028A11) VH: EVQLVESGGGLVQPGGSLRLSCAASGFTFSSYWMYWVRQVPGKGLVWVSHINSDGSTTQYADSVKGRFTISRDNAKNMLYLQMNSLRAEDTAVYYCARDFPVLGGSHFDFQHWGQGTLVTVSS	
								35.3 nM	1.27e+06 MFI			PR007247 (antibody, human IgG1, V domains shown, HCDR2 PTM-removal mutant of PR004536; HCAb, human IgG1 Fc; also called 4536_M8A6) VH: EVQLVESGGGLVQPGGSLRLSCAASGFTFSSYWMYWVRQVPGKGLVWVSHINPLGSTTQYADSVKGRFTISRDNAKNMLYLQMNSLRAEDTAVYYCARDFPVLGGSHFDFQHWGQGTLVTVSS	
